This data set has as its system Escherichia coli TOP10. The data set can be described thus: shrunken log2 fold change of peptide-encoding DNA abundance (4.5 h post-induction vs induction); higher = less antimicrobial activity (less host growth inhibition). The note with it: time post-induction: 4.5 h; library: site-saturation at positions 5, 18, 19, 20.
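Further: peptides expressed intracellularly from a pBAD plasmid library in pooled LB shake-flask culture, induced with 0.3% L-arabinose, DNA abundance read by NGS, three biological replicates, DESeq2 with apeglm shrinkage.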

Take RRIRVRPPRLPRPRPRPKACPRP: the “shrunken log2 fold change” value stood at 0.153.
As for RRIRFRPPRLPRPRPRPHSQPRP, the “shrunken log2 fold change” value was -0.351.
Regarding RRIRLRPPRLPRPRPRPWMVPRP, the “shrunken log2 fold change” value is -0.263.
The same measure for RRIRRRPPRLPRPRPRPTQEPRP: 0.212; for RRIRERPPRLPRPRPRPKCTPRP: -0.882; for RRIRKRPPRLPRPRPRPKSRPRP: 0.296.
RRIRSRPPRLPRPRPRPLEYPRP: the “shrunken log2 fold change” value is -0.277.
Turning to RRIRGRPPRLPRPRPRPEITPRP, the “shrunken log2 fold change” value came to 0.542.
The result for RRIRYRPPRLPRPRPRPKACPRP reads -0.00227.
The same measure for RRIRYRPPRLPRPRPRPIYLPRP: -0.0172.
The result for RRIRHRPPRLPRPRPRPLYAPRP reads -0.402.
With RRIRYRPPRLPRPRPRPANFPRP, the “shrunken log2 fold change” value was found to be 0.0515.
The result for RRIRDRPPRLPRPRPRPKRTPRP reads 0.143; that for RRIRVRPPRLPRPRPRPAPDPRP, 0.377.
Turning to RRIRWRPPRLPRPRPRPKPFPRP, the “shrunken log2 fold change” value stood at 0.323.
The result for RRIRNRPPRLPRPRPRPNSHPRP reads -0.858; that for RRIRQRPPRLPRPRPRPDWNPRP, -0.189.
The same measure for RRIRVRPPRLPRPRPRPKEMPRP: -0.131; for RRIRDRPPRLPRPRPRPGTVPRP: 0.118; for RRIRVRPPRLPRPRPRPCAEPRP: -0.0931.
The same measure for RRIRLRPPRLPRPRPRPTQKPRP: 0.194.
RRIRERPPRLPRPRPRPYWLPRP: the “shrunken log2 fold change” value was -0.294.
The result for RRIRRRPPRLPRPRPRPRAWPRP reads -0.0407.
The same measure for RRIRRRPPRLPRPRPRPHKEPRP: 0.0317; for RRIRTRPPRLPRPRPRPMMMPRP: 2.94; for RRIRARPPRLPRPRPRPYALPRP: 0.0681.
The same measure for RRIRQRPPRLPRPRPRPWDTPRP: 0.14; for RRIRMRPPRLPRPRPRPMSFPRP: -0.0179; for RRIRSRPPRLPRPRPRPNETPRP: -0.198.
Turning to RRIRCRPPRLPRPRPRPSEEPRP, the “shrunken log2 fold change” value is -0.0443.
The result for RRIRFRPPRLPRPRPRPNSRPRP reads -0.0396.
The same measure for RRIRARPPRLPRPRPRPPDVPRP: 0.655.
Take RRIRERPPRLPRPRPRPDFHPRP: the “shrunken log2 fold change” value is -0.498.
As to RRIRPRPPRLPRPRPRPRHHPRP, the “shrunken log2 fold change” value is -0.0806.
Take RRIRHRPPRLPRPRPRPEHNPRP: the “shrunken log2 fold change” value is -0.0734.
The result for RRIRYRPPRLPRPRPRPQQEPRP reads -0.0075; that for RRIRMRPPRLPRPRPRPPFIPRP, 0.082.
The same measure for RRIRFRPPRLPRPRPRPFWHPRP: 0.041; for RRIRNRPPRLPRPRPRPKCHPRP: 0.0244.
The same measure for RRIRQRPPRLPRPRPRPNKQPRP: 0.0262; for RRIRRRPPRLPRPRPRPCVIPRP: -0.0371; for RRIRWRPPRLPRPRPRPPGMPRP: 0.759.
For RRIRKRPPRLPRPRPRPYQQPRP, the “shrunken log2 fold change” value is -0.00547.
RRIRHRPPRLPRPRPRPVIKPRP: the “shrunken log2 fold change” value was -0.0701.
In the case of RRIRGRPPRLPRPRPRPSQFPRP, the “shrunken log2 fold change” value is 0.192.
RRIRERPPRLPRPRPRPKQLPRP: the “shrunken log2 fold change” value stood at 0.123.
RRIRMRPPRLPRPRPRPRIDPRP: the “shrunken log2 fold change” value amounted to 0.0569.
The same measure for RRIRTRPPRLPRPRPRPRKMPRP: -0.107; for RRIRFRPPRLPRPRPRPCRRPRP: 0.122; for RRIRCRPPRLPRPRPRPAYSPRP: -0.97.
The same measure for RRIRNRPPRLPRPRPRPTVYPRP: 0.0487; for RRIRERPPRLPRPRPRPTHYPRP: -0.312.
The same measure for RRIRWRPPRLPRPRPRPPAQPRP: 0.54; for RRIRIRPPRLPRPRPRPQIVPRP: -0.167; for RRIRGRPPRLPRPRPRPMPHPRP: 0.523.
RRIRKRPPRLPRPRPRPDNGPRP: the “shrunken log2 fold change” value was -0.0558.
The result for RRIRARPPRLPRPRPRPIQKPRP reads 0.00369; that for RRIRYRPPRLPRPRPRPMNFPRP, -0.0135.
RRIRRRPPRLPRPRPRPFVKPRP: the “shrunken log2 fold change” value is -0.373.
The result for RRIRIRPPRLPRPRPRPWASPRP reads 0.00397; that for RRIRFRPPRLPRPRPRPFLSPRP, -0.167.
The same measure for RRIRFRPPRLPRPRPRPGFPPRP: 0.098.
The result for RRIRERPPRLPRPRPRPIWGPRP reads -0.0579; that for RRIRKRPPRLPRPRPRPESQPRP, 0.967.
For RRIRERPPRLPRPRPRPYSLPRP, the “shrunken log2 fold change” value was -0.0204.
As to RRIRSRPPRLPRPRPRPIEFPRP, the “shrunken log2 fold change” value was -0.387.
The result for RRIRPRPPRLPRPRPRPYLFPRP reads -0.434; that for RRIRERPPRLPRPRPRPHDHPRP, -0.224.
The same measure for RRIRKRPPRLPRPRPRPLYDPRP: -0.0647; for RRIRTRPPRLPRPRPRPGFIPRP: -0.585; for RRIRIRPPRLPRPRPRPNFMPRP: 0.713.
Consider RRIRMRPPRLPRPRPRPNDEPRP, for which the “shrunken log2 fold change” value came out at 0.699.
The same measure for RRIRMRPPRLPRPRPRPGKSPRP: 0.0127; for RRIRQRPPRLPRPRPRPSRCPRP: -0.177; for RRIRWRPPRLPRPRPRPWYWPRP: -0.209.
The result for RRIRDRPPRLPRPRPRPCTNPRP reads -0.0463.
The result for RRIRHRPPRLPRPRPRPTKEPRP reads -0.0586; that for RRIRLRPPRLPRPRPRPHCSPRP, -0.747; that for RRIRARPPRLPRPRPRPKVHPRP, 0.491.
Regarding RRIRCRPPRLPRPRPRPLKCPRP, the “shrunken log2 fold change” value was -0.228.
For the sequence RRIRCRPPRLPRPRPRPGMMPRP, the “shrunken log2 fold change” value is -0.389.
As for RRIRVRPPRLPRPRPRPDISPRP, the “shrunken log2 fold change” value was -0.0643.
On to RRIRCRPPRLPRPRPRPIQIPRP, for which the “shrunken log2 fold change” value is -0.0558.
Turning to RRIRHRPPRLPRPRPRPCLMPRP, the “shrunken log2 fold change” value is -0.0298.
In the case of RRIRKRPPRLPRPRPRPCQEPRP, the “shrunken log2 fold change” value was -0.0342.
In the case of RRIRARPPRLPRPRPRPTESPRP, the “shrunken log2 fold change” value was 0.659.
For the sequence RRIRIRPPRLPRPRPRPVSTPRP, the “shrunken log2 fold change” value was -0.342.
RRIRFRPPRLPRPRPRPHQKPRP: the “shrunken log2 fold change” value is -0.0745.
The result for RRIRWRPPRLPRPRPRPIRLPRP reads -0.268; that for RRIRIRPPRLPRPRPRPHMCPRP, -1.25; that for RRIRHRPPRLPRPRPRPRHWPRP, -0.0269.
The result for RRIRRRPPRLPRPRPRPIIAPRP reads 0.0198; that for RRIRMRPPRLPRPRPRPSMLPRP, 0.0158.
The same measure for RRIRYRPPRLPRPRPRPTVDPRP: 0.0546; for RRIRIRPPRLPRPRPRPPPDPRP: 0.654.
For RRIRCRPPRLPRPRPRPTTYPRP, the “shrunken log2 fold change” value is -0.781.
The same measure for RRIRERPPRLPRPRPRPCNIPRP: -0.0405; for RRIRIRPPRLPRPRPRPETTPRP: -0.0691.
The same measure for RRIRIRPPRLPRPRPRPSVVPRP: 0.055; for RRIRSRPPRLPRPRPRPKNFPRP: -0.053.
The result for RRIRTRPPRLPRPRPRPRCLPRP reads -0.0645; that for RRIRGRPPRLPRPRPRPAEPPRP, 0.176.
On to RRIRQRPPRLPRPRPRPASEPRP, for which the “shrunken log2 fold change” value is -0.019.
Regarding RRIRGRPPRLPRPRPRPPKHPRP, the “shrunken log2 fold change” value was found to be 0.567.
The same measure for RRIRYRPPRLPRPRPRPKWMPRP: -0.27; for RRIRFRPPRLPRPRPRPTEIPRP: -0.413.
RRIRDRPPRLPRPRPRPAQEPRP: the “shrunken log2 fold change” value turned out to be 0.185.
The result for RRIRDRPPRLPRPRPRPLLTPRP reads 0.35; that for RRIRRRPPRLPRPRPRPQVSPRP, 0.0704.
For the sequence RRIRVRPPRLPRPRPRPKEDPRP, the “shrunken log2 fold change” value was determined as 0.0522.
The same measure for RRIRMRPPRLPRPRPRPRNSPRP: -0.294; for RRIRIRPPRLPRPRPRPYSRPRP: -0.0136.
Regarding RRIRQRPPRLPRPRPRPFALPRP, the “shrunken log2 fold change” value was -0.103.
With RRIRTRPPRLPRPRPRPNYVPRP, the “shrunken log2 fold change” value was -0.35.
Regarding RRIRKRPPRLPRPRPRPERWPRP, the “shrunken log2 fold change” value came to 1.15.
Take RRIRFRPPRLPRPRPRPDKAPRP: the “shrunken log2 fold change” value was -0.0262.
For the sequence RRIRQRPPRLPRPRPRPSYWPRP, the “shrunken log2 fold change” value was -0.0858.
The result for RRIRFRPPRLPRPRPRPICRPRP reads -0.0837; that for RRIRSRPPRLPRPRPRPGWRPRP, 0.923.
Consider RRIRDRPPRLPRPRPRPQHIPRP, for which the “shrunken log2 fold change” value was -0.762.
The result for RRIRWRPPRLPRPRPRPRGFPRP reads 0.25; that for RRIRSRPPRLPRPRPRPPKHPRP, 0.2; that for RRIRKRPPRLPRPRPRPPTCPRP, 0.217.
RRIRNRPPRLPRPRPRPFNIPRP: the “shrunken log2 fold change” value is 0.0411.
As for RRIRPRPPRLPRPRPRPHSGPRP, the “shrunken log2 fold change” value was -0.169.

The values are drawn from the supplement of paper PMC9112550, “Optimization of the antimicrobial peptide Bac7 by deep mutational scanning” (BMC Biology, 2022).
